{"source": "paper PMC12550933", "about": "“Novel Humanized Anti-HER3 Antibodies: Structural Characterization and Therapeutic Activity” (Antibodies, 2025)", "binders": {"B1": {"name": "TK-hu A3-H1L1 humanized anti-HER3 monoclonal antibody (human IgG1, kappa) (antibody, V domains shown)", "VH": "QVTLRESGPALVKPTQTLTLTCTFSGFSLSTYGMGVGWIRQPPGKALEWLANIWWNDDKYYSSSLKTRLTISKDTSKNQVVLTMTNMDPVDTATYYCVQIANPYWYFDVWGQGTTVTVSS", "VL": "DIVMTQTPLSLSVTPGQPASISCKSSQSLLHSYGNTYLEWYLQKPGQSPQLLIYRVSNRFSGVPDRFSGSGSGTDFTLKISRVEAEDVGVYYCFQGSHVPFTFGQGTKLEIK", "notes": "humanized heavy chain variable region, variant H1 (germline CDR grafting of murine TK-A3); they are in PDB 9I1Q chain I (also J, K, L), which also holds CH1 of the Fab; human IgG1 constant region present in the expression vector; humanized light chain variant L1 in frame with the human kappa constant region; the whole light chain is in PDB 9I1Q chain F (also E, G, H); IgG1 kappa; also called …"}}, "settings_in_all_cases": "both partners purified", "key": {"[1]": {"target": "T1, Rhesus HER3/HER3 (HisTag) (Macaca mulatta, UniProt H9ERZ8)", "T1 construct": "rhesus HER3 (ErbB3), bought recombinant protein; probably the extracellular domain (surmise); also called recombinant rhesus HER3; source: bought: Sinobiological", "test": "ELISA; plates coated with 1 µg/mL recombinant human, mouse, rat or rhesus HER3 (His tag); purified antibodies, dose-response"}, "[2]": {"target": "T2, Rat HER3/HER3 (HisTag) (rat, UniProt Q62799)", "T2 construct": "rat HER3 (ErbB3), bought recombinant protein; probably the extracellular domain (surmise); also called recombinant rat HER3; source: bought: Sinobiological", "T2 sequence (Q62799 20-643)": "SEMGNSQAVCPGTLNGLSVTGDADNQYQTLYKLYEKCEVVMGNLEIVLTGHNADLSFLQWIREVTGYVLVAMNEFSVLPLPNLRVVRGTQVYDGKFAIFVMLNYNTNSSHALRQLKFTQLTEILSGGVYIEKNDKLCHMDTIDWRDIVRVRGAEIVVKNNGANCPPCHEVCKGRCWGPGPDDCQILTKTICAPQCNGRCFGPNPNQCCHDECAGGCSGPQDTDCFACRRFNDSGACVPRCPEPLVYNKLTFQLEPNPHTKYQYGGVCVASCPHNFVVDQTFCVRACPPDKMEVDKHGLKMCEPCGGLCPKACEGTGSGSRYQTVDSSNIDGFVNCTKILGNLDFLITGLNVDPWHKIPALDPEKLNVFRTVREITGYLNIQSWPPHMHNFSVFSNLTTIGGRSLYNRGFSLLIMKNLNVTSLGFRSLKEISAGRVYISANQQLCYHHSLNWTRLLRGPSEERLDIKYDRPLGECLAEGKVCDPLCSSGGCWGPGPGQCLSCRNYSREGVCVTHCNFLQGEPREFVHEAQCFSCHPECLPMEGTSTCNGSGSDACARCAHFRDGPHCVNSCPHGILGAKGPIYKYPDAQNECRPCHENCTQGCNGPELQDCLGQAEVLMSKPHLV", "test": "ELISA; plates coated with 1 µg/mL recombinant human, mouse, rat or rhesus HER3 (His tag); purified antibodies, dose-response"}, "[3]": {"target": "T3, Mouse HER3/HER3 (HisTag) (mouse, UniProt Q61526)", "T3 construct": "mouse HER3 (ErbB3), bought recombinant protein; probably the extracellular domain (surmise); also called recombinant mouse HER3; source: bought: Sinobiological", "T3 sequence (Q61526 20-641)": "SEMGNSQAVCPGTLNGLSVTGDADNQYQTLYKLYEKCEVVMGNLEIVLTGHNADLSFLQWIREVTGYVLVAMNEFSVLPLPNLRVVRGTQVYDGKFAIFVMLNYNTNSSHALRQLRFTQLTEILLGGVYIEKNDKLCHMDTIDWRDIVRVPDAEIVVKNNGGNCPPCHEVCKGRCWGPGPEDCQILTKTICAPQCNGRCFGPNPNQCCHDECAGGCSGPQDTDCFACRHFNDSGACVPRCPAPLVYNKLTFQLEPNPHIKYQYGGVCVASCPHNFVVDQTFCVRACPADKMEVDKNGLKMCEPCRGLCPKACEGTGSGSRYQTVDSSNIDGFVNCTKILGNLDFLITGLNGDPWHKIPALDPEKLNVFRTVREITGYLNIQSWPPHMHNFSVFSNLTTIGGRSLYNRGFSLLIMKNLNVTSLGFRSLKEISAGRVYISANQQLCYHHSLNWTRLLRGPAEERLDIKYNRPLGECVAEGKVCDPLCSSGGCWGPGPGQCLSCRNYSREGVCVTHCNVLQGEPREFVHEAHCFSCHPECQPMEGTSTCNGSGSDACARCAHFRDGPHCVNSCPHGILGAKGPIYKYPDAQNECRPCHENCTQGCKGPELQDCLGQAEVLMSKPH", "test": "ELISA; plates coated with 1 µg/mL recombinant human, mouse, rat or rhesus HER3 (His tag); purified antibodies, dose-response"}, "[4]": {"target": "T4, human HER3-Fc chimeric protein (Homo sapiens, UniProt P21860)", "T4 construct": "human HER3 (ErbB3) part of the bought Fc chimera; also called HER3 Fc chimera protein; Recombinant human HER3/HER3-Fc chimeric protein; source: bought: R&D Systems", "T4 sequence (P21860 20-643, change not shown)": "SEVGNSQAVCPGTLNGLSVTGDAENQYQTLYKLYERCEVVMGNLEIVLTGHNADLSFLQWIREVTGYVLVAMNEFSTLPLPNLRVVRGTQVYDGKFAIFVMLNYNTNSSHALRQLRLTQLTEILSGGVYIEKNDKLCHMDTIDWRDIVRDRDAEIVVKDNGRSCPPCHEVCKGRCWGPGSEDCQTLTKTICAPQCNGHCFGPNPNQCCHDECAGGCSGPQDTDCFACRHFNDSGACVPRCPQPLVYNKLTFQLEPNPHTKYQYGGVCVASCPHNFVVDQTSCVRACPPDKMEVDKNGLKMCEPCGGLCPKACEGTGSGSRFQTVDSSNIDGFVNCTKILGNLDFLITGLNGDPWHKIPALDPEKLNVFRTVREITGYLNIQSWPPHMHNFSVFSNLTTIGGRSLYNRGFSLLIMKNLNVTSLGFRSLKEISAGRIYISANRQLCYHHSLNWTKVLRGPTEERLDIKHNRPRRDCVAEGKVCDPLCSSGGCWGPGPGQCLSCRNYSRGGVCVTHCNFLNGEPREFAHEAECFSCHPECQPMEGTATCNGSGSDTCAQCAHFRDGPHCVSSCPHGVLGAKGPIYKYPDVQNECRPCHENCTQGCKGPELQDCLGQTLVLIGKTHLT", "test": "SPR; Biacore X100; HER3 Fc chimera coupled to a CM5 chip; antibodies as analytes, single-cycle kinetics, 25 °C; duplicate; KD = koff/kon"}, "[5]": {"target": "T5, HER3 peptide #54 (15-mer of the overlapping peptide library) (Homo sapiens, UniProt P21860)", "T5 construct": "15-mer of human HER3 from a library of 15-mers with 11 residues overlap; Limits worked out from the printed core and the 11-residue overlap; source: synthetic peptide (JPT Peptide Technologies)", "T5 chain": "QCNGHCFGPNPNQCC", "test": "peptide or protein array; ELISA on plates coated with 1 µg/mL of 15-mer HER3 peptides with 11 residues overlap; antibody at 1 µg/mL overnight at 4 °C"}, "[6]": {"target": "T6, HER3 peptide #55 (15-mer of the overlapping peptide library) (Homo sapiens, UniProt P21860)", "T6 construct": "15-mer of human HER3 from a library of 15-mers with 11 residues overlap; Limits worked out from the printed core and the 11-residue overlap; source: synthetic peptide (JPT Peptide Technologies)", "T6 chain": "HCFGPNPNQCCHDEC", "test": "peptide or protein array; ELISA on plates coated with 1 µg/mL of 15-mer HER3 peptides with 11 residues overlap; antibody at 1 µg/mL overnight at 4 °C"}, "[7]": {"target": "T7, Recombinant human ErbB4 chimeric protein (Homo sapiens (Human)., UniProt Q15303)", "T7 construct": "human ErbB4 part of the bought chimeric protein; also called HER4; source: bought: R&D Systems", "T7 sequence (Q15303 26-651, change not shown)": "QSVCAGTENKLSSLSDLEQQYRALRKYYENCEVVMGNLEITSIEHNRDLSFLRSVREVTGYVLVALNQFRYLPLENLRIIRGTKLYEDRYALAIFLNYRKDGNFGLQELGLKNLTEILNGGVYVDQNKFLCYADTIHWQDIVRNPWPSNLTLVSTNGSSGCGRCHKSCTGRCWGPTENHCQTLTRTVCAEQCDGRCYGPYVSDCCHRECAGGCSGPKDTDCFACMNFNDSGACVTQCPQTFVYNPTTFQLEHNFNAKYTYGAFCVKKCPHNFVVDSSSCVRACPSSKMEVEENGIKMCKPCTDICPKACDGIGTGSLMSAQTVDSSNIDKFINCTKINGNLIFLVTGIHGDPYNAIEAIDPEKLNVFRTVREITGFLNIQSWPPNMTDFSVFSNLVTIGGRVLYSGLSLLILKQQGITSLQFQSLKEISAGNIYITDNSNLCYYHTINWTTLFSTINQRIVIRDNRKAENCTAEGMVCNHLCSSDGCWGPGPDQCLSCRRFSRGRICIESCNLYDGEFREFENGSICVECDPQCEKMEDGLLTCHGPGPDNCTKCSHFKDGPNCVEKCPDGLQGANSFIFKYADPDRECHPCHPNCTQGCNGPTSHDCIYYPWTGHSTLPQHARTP", "test": "ELISA; plates coated with 1 µg/mL recombinant EGFR, ErbB2, HER3 or ErbB4 chimeric protein; purified antibodies at 10 µg/mL (Figure 3A) or in serial dilutions on human HER3 (Figure 3B)"}, "[8]": {"target": "T8, Recombinant human EGFR-Fc chimeric protein (Homo sapiens (Human)., UniProt P00533)", "T8 construct": "human EGFR part of the bought Fc chimera; also called ErbB1; HER1; source: bought: R&D Systems", "test": "ELISA; plates coated with 1 µg/mL recombinant EGFR, ErbB2, HER3 or ErbB4 chimeric protein; purified antibodies at 10 µg/mL (Figure 3A) or in serial dilutions on human HER3 (Figure 3B)"}, "[9]": {"target": "T9, Recombinant human ErbB2 chimeric protein (Homo sapiens (Human)., UniProt P04626)", "T9 construct": "human ErbB2 part of the bought chimeric protein; also called HER2; source: bought: R&D Systems", "test": "ELISA; plates coated with 1 µg/mL recombinant EGFR, ErbB2, HER3 or ErbB4 chimeric protein; purified antibodies at 10 µg/mL (Figure 3A) or in serial dilutions on human HER3 (Figure 3B)"}}, "data": [{"binder": "B1", "values": [{"measurement": "binding result", "setting": "[1]", "value": "binds"}, {"measurement": "binding result", "setting": "[2]", "value": "binds"}, {"measurement": "binding result", "setting": "[3]", "value": "binds"}, {"measurement": "Kd", "setting": "[4]", "value": 1.81, "unit": "nM"}, {"measurement": "koff", "setting": "[4]", "value": 0.000113, "unit": "s⁻¹"}, {"measurement": "kon", "setting": "[4]", "value": 62400, "unit": "M⁻¹ s⁻¹"}, {"measurement": "binding result", "setting": "[5]", "value": "binds"}, {"measurement": "binding result", "setting": "[6]", "value": "binds"}, {"measurement": "binding result", "setting": "[7]", "value": "no binding (tested: 10 µg/mL)"}, {"measurement": "binding result", "setting": "[8]", "value": "no binding (tested: 10 µg/mL)"}, {"measurement": "binding result", "setting": "[9]", "value": "no binding (tested: 10 µg/mL)"}]}]}
